Measurements reported in PMC9407234.

Experiments:
XPA M32-4/70-2 = XPA M32-4/70-2 (UniProt P23025 1-273, R30E;K31E;R32E;R34E;E106K;F112A); experiment: MST
XPA M32-4 = XPA M32-4 (UniProt P23025 1-273, R30E;K31E;R32E;R34E); experiment: MST
XPA M32-4, sequence (P23025 whole entry R30E/K31E/R32E/R34E): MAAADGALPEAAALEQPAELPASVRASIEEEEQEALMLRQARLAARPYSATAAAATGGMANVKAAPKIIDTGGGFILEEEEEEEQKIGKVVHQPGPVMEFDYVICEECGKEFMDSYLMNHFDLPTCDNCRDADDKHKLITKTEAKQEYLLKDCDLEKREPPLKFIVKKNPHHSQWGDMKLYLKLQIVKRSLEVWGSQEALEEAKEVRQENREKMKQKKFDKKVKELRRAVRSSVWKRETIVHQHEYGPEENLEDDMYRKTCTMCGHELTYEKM

XPA M32-4/70-2, sequence (P23025 whole entry R30E/K31E/R32E/R34E/E106K/F112A): as the sequence (P23025 whole entry R30E/K31E/R32E/R34E) above, with E106K, F112A counted along it

B1: 4-nt hairpin NER junction mimic (structured_DNA)
DNA: TTTTGCGGCCGCTTTTGCGGCCGC
Kd (XPA M32-4/70-2): 10 ± 3 µM | Kd (XPA M32-4): 8.4 ± 2.3 µM
